Assay results published in patent US20210130470A1 (MacroGenics, published 2021).

What was measured:
[1] = target: T1, hPD-1-His (human, UniProt Q15116 25-170, limits assumed); assay: ELISA, hPD-1-His (1 ug/mL) coated, goat anti-human-Fc-HRP detection
T1 construct: also called His-tagged soluble human PD-1; shPD-1
Source text: FIGS. 8A-8D show the results of ELISA studies measuring the binding of serially diluted binding molecules to human CTLA-4 and human PD-1. […] Goat anti-human-Fc-HRP (1:10,000) was employed as the secondary detection molecule to detect binding. FIGS. 8C-8D show the results of a study on the effect of altering orientations and binding domains on binding. […] Goat anti-human-Fcγ-HRP was employed as the secondary detection molecule to detect binding using PICO chemiluminescent substrate.
Goat anti-human-Fc-HRP (1:10,000) was employed as the secondary detection molecule to detect binding.

[2] = target: T2, PD-1 expressed on the cell surface (human, UniProt Q15116 21-288); assay: cell-based competition (FACS): blocked ligand PD-L1-PE binding to NSO-PD-1 cells, MFI
T2 construct: also called NSO cells expressing PD-1; NSO-PD-1 cells

[3] = target: T2, PD-1 expressed on the cell surface; assay: cell-based competition (FACS): blocked ligand PD-L2-PE binding to NSO-PD-1 cells, MFI
[4] = target: T3, human CTLA-4 expressed on the cell surface (human, UniProt P16410 36-223); assay: flow cytometry (FACS) on Jurkat cells expressing huCTLA-4 but not PD-1, anti-human Fc secondary antibody, MFI
T3 construct: also called huCTLA-4; CHO cells expressing human CTLA-4
T3 sequence: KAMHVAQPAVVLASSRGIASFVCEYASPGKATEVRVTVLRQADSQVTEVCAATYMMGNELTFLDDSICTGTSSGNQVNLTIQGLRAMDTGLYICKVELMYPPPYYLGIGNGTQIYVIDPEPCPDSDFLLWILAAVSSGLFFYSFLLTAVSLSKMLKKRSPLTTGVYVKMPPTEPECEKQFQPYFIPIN
Source text: Binding of the DART and TRIDENT molecules to human CTLA-4 was detected using anti-human FC secondary Ab (FACS).

[5] = target: T1, hPD-1-His; assay: BIACORE, binder captured on F(ab)2 goat anti-human Fc, His-tagged soluble human PD-1 passed over at 6.25-100 nM; Langmuir 1:1 fit
[6] = target: T1, hPD-1-His; assay: competition ELISA: plate coated with shPD-1 and shCTLA-4 1:1 (2 ug/ml each); blocked ligand biotin-labeled PD-L1 6 ug/ml, streptavidin-HRP, RLU
Description: (§1) A series of ELISA assays were conducted to evaluate the ability of bispecific molecules of the invention to block ligand binding to PD-1 and […], alone and in combination. […] Plates were coated with a 1:1 mix of His-tagged soluble human PD-1 (shPD-1) and a His-tagged irrelevant antigen (irrAg) (2 μg/ml each), or a 1:1 mix of shPD-1 and a His-tagged soluble human CTLA-4 (shCTLA-4) (2 μg/ml each).

[7] = target: T1, hPD-1-His; assay: competition ELISA: plate coated with shPD-1 and irrelevant antigen 1:1 (2 ug/ml each); blocked ligand biotin-labeled PD-L1 6 ug/ml, streptavidin-HRP, RLU
Description: as §1

B1: PD-1 mAb 6 G4P (antibody, human IgG4 S228P, kappa, V domains shown)
VH: QVQLVQSGAEVKKPGASVKVSCKASGYSFTSYWMNWVRQAPGQGLEWIGVIHPSDSETWLDQKFKDRVTITVDKSTSTAYMELSSLRSEDTAVYYCAREHYGTSPFAYWGQGTLVTVSS
VL: EIVLTQSPATLSLSPGERATLSCRASESVDNYGMSFMNWFQQKPGQPPKLLIHAASNQGSGVPSRFSGSGSGTDFTLTISSLEPEDFAVYFCQQSKEVPYTFGGGTKVEIKR
notes: IgG4 with stabilized hinge, kappa; VH/VL of PD-1 mAb 6-ISQ; also called the PD-1 antibody; parental anti-PD-1 antibody
B1 was tested, and the EC50 [1] was 0.3 nM, the “IC50 (read off the curve)” value [2] was roughly 0.5 nM and the “IC50 (read off the curve)” value [3] was roughly 0.5 nM. For the same binder, the binding result [4] was “no binding (tested: about 100 nM)”, the Kd [5] was 1.1 nM and the “IC50 (read off the curve)” value [6] was roughly 0.7 nM. The “IC50 (read off the curve)” value [7] was roughly 0.8 nM.
